The source of these data is patent US20150307585A1 (published 2015).

Assay [1] deals with T1, RAC1 P29S (Ras-related C3 botulinum toxin substrate 1) peptide on HLA-A*02:01 (human).
T1 peptide: FSGEYIPTV
Put plainly: cytokine release.

The target in assay [2] is T1, RAC1 P29S (Ras-related C3 botulinum …). Put plainly: multimer staining.

B1: T1 (TCR, V domains shown)
Valpha: EDQVTQSPEALRLQEGESSSLNCSYTVSGLRGLFWYRQDPGKGPEFLFTLYSAGEEKEKERLKATLTKKESFLHITAPKPEDSATYLCAVQTSQGGSEKLVFGKGTKLTVNP
Vbeta: DTEVTQTPKHLVMGMTNKKSLKCEQHMGHRAMYWYKQKAKKPPELMFVYSYEKLSINESVPSRFSPECPNSSLLNLHLHALQPEDSALYLCASSQDASGIYYEQYFGPGTRLTVT
For B1, in assay [1], the binding result is “recognises”.

B2: T3/T4, chain combination TRAV5/TRBV20-1 (TCR, V domains shown)
Valpha: GEDVEQSLFLSVREGDSSVINCTYTDSSSTYLYWYKQEPGAGLQLLTYIFSNMDMKQDQRLTVLLNKKDKHLSLRIADTQTGDSAIYFCAESKRFSDGQKLLFARGTMLKVDL
Vbeta: GAVVSQHPSWVICKSGTSVKIECRSLDFQATTMFWYRQFPKQSLMLMATSNEGSKATYEQGVEKDKFLINHASLTLSTLTVTSAHPEDSSFYICSARDLITDTQYFGPGTRLTVL
Regarding B2, in assay [2], the binding result is on record as “recognises”.

B3: T2 (TCR, V domains shown)
Valpha: GENVEQHPSTLSVQEGDSAVIKCTYSDSASNYFPWYKQELGKGPQLIIDIRSNVGEKKDQRIAVTLNKTAKHFSLHITETQPEDSAVYFCAASRGGAQKLVFGQGTRLTINP
Vbeta: DTAVSQTPKYLVTQMGNDKSIKCEQNLGHDTMYWYKQDSKKFLKIMFSYNNKELIINETVPNRFSPKSPDKAHLNLHINSLELGDSAVYFCASSQLAGGPLYNEQFFGPGTRLTVL
With B3, the binding result in assay [1] was “recognises”.

B4: T6 (TCR, V domains shown)
Valpha: GESVGLHLPTLSVQEGDNSIINCAYSNSASDYFIWYKQESGKGPQFIIDIRSNMDKRQGQRVTVLLNKTVKHLSLQIAATQPGDSAVYFCAENRGANSKLTFGKGITLSVRP
Vbeta: DAGVIQSPRHEVTEMGQEVTLRCKPISGHNSLFWYRQTMMRGLELLIYFNNNVPIDDSGMPEDRFSAKMPNASFSTLKIQPSEPRDSAVYFCASSFTGGFYGYTFGSGTRLTVV
For the molecule B4, the binding result in assay [2] was “recognises”.

B5: T5 (TCR, V domains shown)
Valpha: GENVEQHPSTLSVQEGDSAVIKCTYSDSASNYFPWYKQELGKGPQLIIDIRSNVGEKKDQRIAVTLNKTAKHFSLHITETQPEDSAVYFCAASLGSGNTPLVFGKGTRLSVIA
Vbeta: DVKVTQSSRYLVKRTGEKVFLECVQDMDHENMFWYRQDPGLGLRLIYFSYDVKMKEKGDIPEGYSVSREKKERFSLILESASTNQTSMYLCASSLHSGRDTQYFGPGTRLTVL
Turning to B5, in assay [2], the binding result is reported as “recognises”.
